# B1: Pistol ribozyme (parent)
# chain: GGGUCGUUGUUCCAUAAUCGCGUGGAUAUGGCACGCAAGUUUCUACCGGGCACCGUAAAUGUCCGACUGGAGCCGUUCGGGCGGCUAUAAACAGACCUCAGGCCCGAAGCGUGGCGGCACCUGCCGCCGGUGGUAAAAAAGAUCGGAAGAGCACACGUCU
# Variants of: B1
# Assay: aptazyme ON/OFF ratio, guanine; higher = stronger switching; co-transcriptional cleavage with and without guanine
row,Variant,aptazyme ON/OFF ratio
1,U7A U8A G9U U10C U11A,1.29
2,U7A U8A G9U U11G,1.36
3,U7A U8A G9U U11A,0.956
4,U7A U8A G9U U11C,1.09
5,U7A U8A U10C U11C C12A C13A,1.06
6,U7A U8A U10C U11C C12A C13U,1.12
7,U7A U8A U10C U11C C12A C13G,1.09
8,U7A U8A G9U U10C U11A C12A C13A,1.2
9,U7A U8A G9U U10C U11A C12A C13G,1.14
10,U7A U8A G9U U10C U11A C12A C13U,1.23
11,U7A U8A G9U U10C U11A C12U C13G,1.18
12,U7A U8A G9U U10C U11A C12U C13U,1.22
13,U7A U8A G9U U10C U11A C12U C13A,1.14
14,U7A U8A U10G C12G C13G,0.977
15,U7A U8A U10G C12G C13U,1.28
16,U7A U8A U10G C12G C13A,1.17
17,U7A U8A G9U U10C U11C C12A C13A,1.04
18,U7A U8A G9U U10C U11C C12A C13G,1.12
19,U7A U8A G9U U10C U11C C12A C13U,1.05
20,U7A U8A U10A U11A C12U,1.2
21,U7A U8A U10A U11A C12G,1.19
22,U7A U8A U10A U11A C12A,1.18
23,U7A U8A G9U U10C U11G C13A,1.1
24,U7A U8A G9U U10C U11G C13U,1.14

row,Variant,aptazyme ON/OFF ratio
1,U7A U8A G9U U10C U11G C13G,1.17
2,U7A U8A G9U U11C C12G C13G,1.04
3,U7A U8A G9U U11C C12G C13U,1.29
4,U7A U8A G9U U11C C12G C13A,1.18
5,U7A U8A U10G U11A C12G C13G,1.16
6,U7A U8A U10G U11A C12G C13U,1.51
7,U7A U8A U10G U11A C12G C13A,1.2
8,U7A U8A G9U U10G U11G C12G C13U,1.22
9,U7A U8A G9U U10G U11G C12G C13A,1.21
10,U7A U8A G9U U10G U11G C12G C13G,1.16
11,U7A U8A G9U U10C U11C C13G,1.04
12,U7A U8A G9U U10C U11C C13U,1.04
13,U7A U8A G9U U10C U11C C13A,1.04
14,U7A U8A G9U U10G U11G C12G,1.41
15,U7A U8A G9U U10G U11G C12U,1.37
16,U7A U8A G9U U10G U11G C12A,1.13
17,U7A U8A U10A U11G C12G C13A,0.986
18,U7A U8A U10A U11G C12G C13U,1.35
19,U7A U8A U10A U11G C12G C13G,1.6
20,U7A U8A U10C U11G C12U,1.45
21,U7A U8A U10C U11G C12A,1.09
22,U7A U8A U10C U11G C12G,1.34
23,U7A U8A U10G C13U,1.22
24,U7A U8A U10G C13A,1.31

row,Variant,aptazyme ON/OFF ratio
1,U7A U8A U10G C13G,1.12
2,U7A U8A U10C C12G,1.16
3,U7A U8A U10C C12U,1.68
4,U7A U8A U10C C12A,1.16
5,U7A U8A U10C U11C C13U,1.02
6,U7A U8A U10C U11C C13A,1.01
7,U7A U8A U10C U11C C13G,1.07
8,U7A U8A G9U U10C U11A C12U,1.23
9,U7A U8A G9U U10C U11A C12G,1.18
10,U7A U8A G9U U10C U11A C12A,1.22
11,U7A U8A U10C C12G C13G,1.19
12,U7A U8A U10C C12G C13A,1.17
13,U7A U8A U10C C12G C13U,1.26
14,U7A U8A G9U U10C U11C C12U C13G,1.02
15,U7A U8A G9U U10C U11C C12U C13U,1.08
16,U7A U8A G9U U10C U11C C12U C13A,1.02
17,U7A U8A G9U U10C U11A C13G,1.17
18,U7A U8A G9U U10C U11A C13A,1.22
19,U7A U8A G9U U10C U11A C13U,1.08
20,U7A U8A G9U U10G,1.61
21,U7A U8A U10C U11G C12G C13A,1.17
22,U7A U8A U10C U11G C12G C13U,1.19
23,U7A U8A U10C U11G C12G C13G,1.18
24,U7A U8A U10C U11A C13G,1.09

row,Variant,aptazyme ON/OFF ratio
1,U7A U8A U10C U11A C13A,1.13
2,U7A U8A U10C U11A C13U,1.05
3,U7A U8A G9U U10G U11A C12A C13A,1.19
4,U7A U8A G9U U10G U11A C12A C13U,1.16
5,U7A U8A G9U U10G U11A C12A C13G,1.09
6,U7A U8A U10A C12A,1.33
7,U7A U8A U10A C12U,1.11
8,U7A U8A U10A C12G,1.26
9,U7A U8A U10G U11A,1.03
10,U7A U8A U10G U11C,1.03
11,U7A U8A G9U U10G U11A C12G C13U,1.51
12,U7A U8A G9U U10G U11A C12G C13G,1.4
13,U7A U8A G9U U10G U11A C12G C13A,1.18
14,U7A U8A U10G U11A C12U C13A,1.35
15,U7A U8A U10G U11A C12U C13G,1.27
16,U7A U8A U10G U11A C12U C13U,1.11
17,U7A U8A G9U U10G C12A C13G,1.09
18,U7A U8A G9U U10G C12A C13A,1.38
19,U7A U8A G9U U10G C12A C13U,1.19
20,U7A U8A U10A U11C C12G C13A,1.06
21,U7A U8A U10A U11C C12G C13U,1.15
22,U7A U8A U10A U11C C12G C13G,1.24
23,U7A U8A U10A U11C C12U,1.03
24,U7A U8A U10A U11C C12G,1.1

row,Variant,aptazyme ON/OFF ratio
1,U7A U8A U10A U11C C12A,1.04
2,U7A U8A G9U U11C C13U,1.04
3,U7A U8A G9U U11C C13G,1.05
4,U7A U8A G9U U11C C13A,1.11
5,U7A U8A G9U U10G C12U C13G,1.26
6,U7A U8A G9U U10G C12U C13U,1.51
7,U7A U8A G9U U10G C12U C13A,1.17
8,U7A U8A G9U U11C C12U C13U,1.32
9,U7A U8A G9U U11C C12U C13A,1.18
10,U7A U8A G9U U11C C12U C13G,1.02
11,U7A U8A U10G C12U C13U,1.42
12,U7A U8A U10G C12U C13G,1.13
13,U7A U8A U10G C12U C13A,1.51
14,U7A U8A G9U U10G C12A,1.22
15,U7A U8A G9U U10G C12U,1.33
16,U7A U8A G9U U10G C12G,1.16
17,U7A U8A U10A C12G C13U,1.23
18,U7A U8A U10A C12G C13G,1.17
19,U7A U8A U10A C12G C13A,1.14
20,U7A U8A U10A U11A C12U C13G,1.24
21,U7A U8A U10A U11A C12U C13A,1.33
22,U7A U8A U10A U11A C12U C13U,1.14
23,U7A U8A G9U U10G U11C C12A C13A,1.29
24,U7A U8A G9U U10G U11C C12A C13U,1.21

row,Variant,aptazyme ON/OFF ratio
1,U7A U8A G9U U10G U11C C12A C13G,1.15
2,U7A U8A G9U U10G U11C C12A,1.33
3,U7A U8A G9U U10G U11C C12G,1.2
4,U7A U8A G9U U10G U11C C12U,1.08
5,U7A U8A G9U U11A C12G C13U,1.14
6,U7A U8A G9U U11A C12G C13A,0.953
7,U7A U8A G9U U11A C12G C13G,1.16
8,U7A U8A G9U U11G C12U C13A,1.28
9,U7A U8A G9U U11G C12U C13G,1.17
10,U7A U8A G9U U11G C12U C13U,1.55
11,U7A U8A G9U U10G U11G C12A C13A,1.24
12,U7A U8A G9U U10G U11G C12A C13G,1.2
13,U7A U8A G9U U10G U11G C12A C13U,1.17
14,U7A U8A U10A C12U C13U,1.2
15,U7A U8A U10A C12U C13G,1.1
16,U7A U8A U10A C12U C13A,1.28
17,U7A U8A G9U U10G U11G C13G,1.3
18,U7A U8A G9U U10G U11G C13U,1.17
19,U7A U8A G9U U10G U11G C13A,1.24
20,U7A U8A U10G U11C C13A,1.17
21,U7A U8A G9U U11G C12G C13U,1.1
22,U7A U8A G9U U11G C12G C13A,1.22
23,U7A U8A G9U U11G C12G C13G,1.22
24,U7A U8A U10G U11C C12A C13G,1.09

row,Variant,aptazyme ON/OFF ratio
1,U7A U8A U10G U11C C12A C13U,1.34
2,U7A U8A U10G U11C C12A C13A,1.28
3,U7A U8A G9U U10G U11A,1.03
4,U7A U8A G9U U10G U11C,1.05
5,U7A U8A G9U U10G U11G,1.09
6,U7A U8A U10C U11A,1.2
7,U7A U8A U10C U11G,1.2
8,U7A U8A U10C U11C,1.04
9,U7A U8A U10A C12A C13A,1.23
10,U7A U8A U10A C12A C13G,1.03
11,U7A U8A U10A C12A C13U,1.37
12,U7A U8A U10C U11G C12U C13U,1.3
13,U7A U8A U10C U11G C12U C13A,1.23
14,U7A U8A U10C U11G C12U C13G,1.1
15,U7A U8A U10A U11C C13G,1.06
16,U7A U8A U10A U11C C13A,1.04
17,U7A U8A U10A U11C C13U,0.989
18,U7A U8A U10G U11C C12U C13A,1.42
19,U7A U8A U10G U11C C12U C13U,1.47
20,U7A U8A U10G U11C C12U C13G,1.48
21,U7A U8A U10C U11G C12A C13G,1.16
22,U7A U8A U10C U11G C12A C13U,1.12
23,U7A U8A U10C U11G C12A C13A,1.12

# From the RNAGym collection of RNA variant scans (doi:10.1021/acssynbio.7b00057)
